# Reference: US20250215101A1, “DR5 Agonist and PLK1 Inhibitor or CDK Inhibitor Combination Therapy” (Inhibrx Biosciences, Inc., priority 2022, published 2025)
# B1: INBRX-109: DR5-binding polypeptide consisting of SEQ ID NO: 7 (two VHH domains and an Fc region); DR5 agonist (protein)
# chain: EVQLLESGGGEVQPGGSLRLSCAASGLTFPNYGMGWFRQAPGKEREFVSAIYWSGGTVYYAESVKGRFTISRDNAKNTLYLQMSSLRAEDTAVYYCAVTIRGAATQTWKYDYWGQGTLVTVKPGGSGGSEVQLLESGGGEVQPGGSLRLSCAASGLTFPNYGMGWFRQAPGKEREFVSAIYWSGGTVYYAESVKGRFTISRDNAKNTLYLQMSSLRAEDTAVYYCAVTIRGAATQTWKYDYWGQGTLVTVKPGGGGDKTHTCPPCPAPGGPSVFLFPPKPKDTLMISRTPEVTCVVVDVSHEDPEVKFNWYVDGVEVHNAKTKPREEQYNSTYRVVSVLTVLHQDWLNGKEYKCKVSNKALPAPIEKTISKAKGQPREPQVYTLPPSRDELTKNQVSLTCLVKGFYPSDIAVEWESNGQPENNYKTTPPVLDSDGSFFLYSKLTVDKSRWQQGNVFSCSVMHEALHNHYTQKSLSLSPGK
# modifications: INBRX-109
# notes: DR5 agonist
# Assays:
# Type in all cases: cell-based
# PL45 = assay: Cytotoxicity assay, pancreatic cell line panel, onvansertib +/- 1 nM INBRX-109; settings: PL45; 1 nM INBRX-109 only
# Experimental: (§1) Monolayer cultures of each cell line were harvested for compound screening as detailed below.
# (§2) Also on day 2, test and control articles were added.
# (§3) On day 4, viability measurements were taken. […] Data was graphed in GraphPad Prism 9.
# (§4) The results for a panel of colorectal cancer cell lines are shown in Table 3 and FIGS. 4-6, and the results for a panel of pancreatic cell lines are shown in Table 4 and FIGS. 7 and 8.
# AsPC-1 = assay: as above; settings: AsPC-1; 1 nM INBRX-109 only
# Experimental: as §1, §2, §3, §4
# KP4 = assay: as above; settings: KP4; 1 nM INBRX-109 only
# Experimental: as §1, §2, §3, §4
# PANC-1 = assay: as above; settings: PANC-1; 1 nM INBRX-109 only
# Experimental: as §1, §2, §3, §4
# PSN-1 = assay: as above; settings: PSN-1; 1 nM INBRX-109 only
# Experimental: as §1, §2, §3, §4
# Panc 03.27 = assay: as above; settings: Panc 03.27; 1 nM INBRX-109 only
# Experimental: as §1, §2, §3, §4
# Capan-1 = assay: as above; settings: Capan-1; 1 nM INBRX-109 only
# Experimental: as §1, §2, §3, §4
# BxPC-3 = assay: as above; settings: BxPC-3; 1 nM INBRX-109 only
# Experimental: as §1, §2, §3, §4
# SU.86.86 = assay: as above; settings: SU.86.86; 1 nM INBRX-109 only
# Experimental: as §1, §2, §3, §4
# HuP-T4 = assay: as above; settings: HuP-T4; 1 nM INBRX-109 only
# Experimental: as §1, §2, §3, §4
# Capan-2 = assay: as above; settings: Capan-2; 1 nM INBRX-109 only
# Experimental: as §1, §2, §3, §4
# HPAF-II = assay: as above; settings: 1 nM INBRX-109 only
# Experimental: as §1, §2, §3, §4
# Panc 10.05 = assay: as above; settings: Panc 10.05; 1 nM INBRX-109 only
# Experimental: as §1, §2, §3, §4
# MIA PaCa-2 = assay: as above; settings: MIA PaCa-2; 1 nM INBRX-109 only
# Experimental: as §1, §2, §3, §4
# CFPAC-1 = assay: as above; settings: CFPAC-1; 1 nM INBRX-109 only
# Experimental: as §1, §2, §3, §4
# SW-1990 = assay: as above; settings: SW-1990; 1 nM INBRX-109 only
# Experimental: as §1, §2, §3, §4
# Panc 05.04 = assay: as above; settings: Panc 05.04; 1 nM INBRX-109 only
# Experimental: as §1, §2, §3, §4
# [1] = tested on: several cancerous cell lines; assay: Previous cytotoxicity assays with several cancerous cell lines
# HT-29 = assay: Cell viability (CellTiter-Glo) cytotoxicity assay, INBRX-109 x onvansertib matrix, 48 h; settings: HT-29
# Experimental: as §1
# (§5) Onvansertib: A 10 mg stock of onvansertib was purchased from Selleck Chemicals and was resuspended to 10 mM in DMSO. This was then aliquoted and stored at −80° C. Aliquots were thawed immediately prior to dilution and use in the assay. A 500× master plate of serial dilutions (6-point 5-fold dilutions in 100% DMSO starting at 500 μM, plus a DMSO only control) was prepared and mixed gently with a pipette. To generate a 5× working dilution plate of onvansertib, a 1:100 dilution was performed from the 500× plate into complete media (EMEM).
# as §2, §3
# SW837 = assay: as above; settings: SW837
# Experimental: as §1, §5, §2, §3
# LS174T = assay: as above
# Experimental: as §1, §5, §2, §3
# SW620 = assay: as above; settings: SW620; INBRX-109 only (Table 1)
# Experimental: as §1, §5, §2, §3
# SW1463 = assay: as above; settings: SW1463
# Experimental: as §1, §5, §2, §3
# LS411N = assay: as above
# Experimental: as §1, §5, §2, §3
molecule,measurement,setting,value
B1,Max Cytotox at 1 nM,PL45,14.1%
same,Max Cytotox at 1 nM,AsPC-1,14.5%
same,Max Cytotox at 1 nM,KP4,7.8%
same,Max Cytotox at 1 nM,PANC-1,32.6%
same,Max Cytotox at 1 nM,PSN-1,91.9%
same,Max Cytotox at 1 nM,Panc 03.27,53.2%
same,Max Cytotox at 1 nM,Capan-1,86.9%
same,Max Cytotox at 1 nM,BxPC-3,51.3%
same,Max Cytotox at 1 nM,SU.86.86,92.5%
same,Max Cytotox at 1 nM,HuP-T4,80.7%
same,Max Cytotox at 1 nM,Capan-2,11.1%
same,Max Cytotox at 1 nM,HPAF-II,22.8%
same,Max Cytotox at 1 nM,Panc 10.05,23.8%
same,Max Cytotox at 1 nM,MIA PaCa-2,77.9%
same,Max Cytotox at 1 nM,CFPAC-1,23.8%
same,Max Cytotox at 1 nM,SW-1990,54.7%
same,Max Cytotox at 1 nM,Panc 05.04,97.0%
same,maximally efficacious concentration,[1],1 nM
same,Max Cytotox,HT-29; INBRX-109 + 200 nM onvansertib,94.94%
same,EC50,HT-29; INBRX-109 only (Table 1),0.0116 nM
same,Max Cytotox,HT-29; INBRX-109 only (Table 1),71.42%
same,Max Cytotox,SW837; INBRX-109 + 200 nM onvansertib,80.64%
same,EC50,SW837; INBRX-109 only (Table 1),0.00123 nM
same,Max Cytotox,SW837; INBRX-109 only (Table 1),6.43%
same,EC50,LS174T; INBRX-109 + 200 nM onvansertib,0.0907 nM
same,Max Cytotox,LS174T; INBRX-109 + 200 nM onvansertib,79.32%
same,EC50,LS174T; INBRX-109 only (Table 1),0.0106 nM
same,Max Cytotox,LS174T; INBRX-109 only (Table 1),59.68%
same,EC50,SW620,0.00478 nM
same,Max Cytotox,SW620,20.25%
same,EC50,SW1463; INBRX-109 + 200 nM onvansertib,0.00495 nM
same,Max Cytotox,SW1463; INBRX-109 + 200 nM onvansertib,73.74%
same,EC50,SW1463; INBRX-109 only (Table 1),0.066 nM
same,Max Cytotox,SW1463; INBRX-109 only (Table 1),38.14%
same,Max Cytotox,LS411N; INBRX-109 + 200 nM onvansertib,88.9%
same,EC50,LS411N; INBRX-109 only (Table 1),Unstable
